± gives the standard deviation of the averaged measurements.
What follows are sequences tested on Saccharomyces cerevisiae (assay: protein stability index of tFT-peptide fusion (C-terminal peptide) (PSI (0-1 scale)); higher = more stable (slower turnover)). Conditions: genetic background: wild type; temperature: 30 C.
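Note: PSI is a weighted mean of sequencing reads over stability bins, variants kept only with over 10 reads, mCherry proximal and sfGFP distal, peptide attached via GGGS linker.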

Row | Sequence | protein stability index
1 | PPLRPGLLYSPS | 0.687 ± 0.019
2 | MQEMLPSRPIRH | 0.69 ± 0.029
3 | GRWGRGGASVVT | 0.649 ± 0.029
4 | FSLLTFPPSSPT | 0.716 ± 0.016
5 | RTGAPSGEACCA | 0.676 ± 0.026
6 | KNRKIIIITLPK | 0.63 ± 0.036
7 | VFGFLGSLASCR | 0.853 ± 0.2
8 | HLPPPPTLPPFP | 0.6905 ± 0.0068
9 | GAWGFVWLGVGC | 0.658 ± 0.031
10 | CRGVGGRTVING | 0.692 ± 0.032
11 | VGSGFGGAGVIG | 0.696 ± 0.045
12 | PPPSFPPFFPSF | 0.731 ± 0.014
13 | IRLMTTIITYMI | 0.44 ± 0.13
14 | CLLFSRQLLESP | 0.678 ± 0.077
15 | SPWLSSRFRVPR | 0.686 ± 0.021
16 | RNRNKKIIREKK | 0.7 ± 0.033
17 | RYHLHFIGDVGF | 0.6974 ± 0.0042
18 | RSGFTSSPLRSG | 0.681 ± 0.034
19 | PRPPSPPADPAP | 0.744 ± 0.013
20 | VGGGGERGRGGS | 0.687 ± 0.01
21 | PLPPPPPPPSTP | 0.784 ± 0.0098
22 | SSFLLGCAFPLG | 0.688 ± 0.0075
23 | KTTETVLRKRTK | 0.737 ± 0.049
24 | GYPIIIFYSAVQ | 0.529 ± 0.051
25 | SGHRLGRGQGQR | 0.67 ± 0.02
26 | VLAHCLFRCEKN | 0.6062 ± 0.001

Row | Sequence | protein stability index
27 | EKCHVTVVNEMR | 0.643 ± 0.074
28 | RGVRLGPSVVVG | 0.696 ± 0.051
29 | WAGGGVWRVGGR | 0.715 ± 0.042
30 | PRPPPPPPPLPP | 0.692 ± 0.03
31 | SAPSAAPPRSHP | 0.708 ± 0.025
32 | LPPLPPIAPPPP | 0.8126 ± 0.0041
33 | WSVVRVGGCGAR | 0.699 ± 0.024
34 | GVAVVSGREGRG | 0.7809 ± 0.0063
35 | KKKKNKNKRTRK | 0.662 ± 0.038
36 | LHRFPMISLLGP | 0.699 ± 0.018
37 | LPPTPSSRGPHS | 0.669 ± 0.019
38 | EVCAGNFVCSLG | 0.708 ± 0.015
39 | APYPVSRGLLGF | 0.656 ± 0.057
40 | PRPFAPPPPPHD | 0.808 ± 0.094
41 | GLSPDFRFMGVR | 0.667 ± 0.029
42 | LPPCPLFPPVHF | 0.757 ± 0.1
43 | SCSVAIFLLSSP | 0.6848 ± 0.0025
44 | SPPPLPHPPAAS | 0.698 ± 0.023
45 | KKNRSRKRRNKK | 0.713 ± 0.032
46 | AVCCKYFGESLF | 0.864 ± 0.0098
47 | KVREGEARKEST | 0.6826 ± 0.0017
48 | TCNWQGASSIIG | 0.6765 ± 0.0033
49 | IGVGVGIDGLPW | 0.693 ± 0.093
50 | LTGRAVCTDKLK | 0.734 ± 0.083
51 | GPYDLPCLPLSA | 0.633 ± 0.014
52 | PPLPAPPQSPHT | 0.705 ± 0.028

Row | Sequence | protein stability index
53 | YSIKSTVTYSVH | 0.574 ± 0.066
54 | GYGLGVEAEGLE | 0.715 ± 0.054
55 | ILFSILHLLSYL | 0.6426 ± 0.0039
56 | SGLGRETHGSYS | 0.66 ± 0.012
57 | VRGKSARRSSRR | 0.665 ± 0.029
58 | PLSLIAFAISPC | 0.637 ± 0.015
59 | SLGGFLPPESFV | 0.708 ± 0.049
60 | KIKRTNKNIKKS | 0.672 ± 0.017
61 | GTRGGGGWSCES | 0.701 ± 0.06
62 | RLSSVPSRSLPA | 0.733 ± 0.096
63 | PLRPPPSPLSPR | 0.76 ± 0.055
64 | RMLVNKLSAFFI | 0.64 ± 0.053
65 | LLPHLLVLLPSS | 0.623 ± 0.0049
66 | EKNKKKIERSTM | 0.684 ± 0.012
67 | LWSSRPGFDDVW | 0.6426 ± 0.0011
68 | RREASLGSYSFE | 0.69778 ± 0.00039
69 | YLTNIHQRVLLP | 0.659 ± 0.031
70 | INIKKKKKIQHI | 0.564 ± 0.016
71 | PFAHPPRLPLFP | 0.742 ± 0.096
72 | SPSPPLPFSRPP | 0.686 ± 0.044
73 | HPSRPPRASPPS | 0.693 ± 0.03
74 | LLLFPRFPPPPL | 0.711 ± 0.038
75 | LLALAPFWVRHK | 0.68 ± 0.011
76 | KKERINNDLPGS | 0.619 ± 0.026
77 | IDVLTGTDAGPT | 0.6278 ± 0.004
78 | LVAFKGNSMGRE | 0.681 ± 0.019

Row | Sequence | protein stability index
79 | DSFLLSSKICWT | 0.745 ± 0.0069
80 | YNYADVCTNESP | 0.7 ± 0.022
81 | WERGGGGRVCGW | 0.754 ± 0.02
82 | GYLNWIDTRTSE | 0.79 ± 0.086
83 | PPPPPTALLRPP | 0.731 ± 0.18
84 | LRRVGKLRESGS | 0.688 ± 0.018
85 | GGGGGGGAWKGV | 0.69 ± 0.02
86 | RVVGGRDVRGGG | 0.737 ± 0.049
87 | HGCRLCFISSWL | 0.663 ± 0.0057
88 | CRRPPWRFSFPF | 0.767 ± 0.021
89 | PPSSPPLQHPPP | 0.598 ± 0.038
90 | VWRGGGVRLGRL | 0.75 ± 0.046
91 | LRPSLPCPPFCP | 0.641 ± 0.057
92 | RALPSPRSPLSI | 0.616 ± 0.041
93 | NLTKTLNNDIIK | 0.68183 ± 0.00011
94 | LLGVYVRSFGSK | 0.698 ± 0.015
95 | ASTLPTQPWPKG | 0.729 ± 0.11
96 | NPSRASAWPHVH | 0.607 ± 0.061
97 | LPHPRPPQSPPQ | 0.7 ± 0.03
98 | SAQGPVLFSTGP | 0.716 ± 0.044
99 | RLSSLSSPPPAF | 0.693 ± 0.07
100 | CLLRPTPRPATP | 0.779 ± 0.036
101 | IESRGCSMQKRL | 0.7489 ± 0.0039
102 | TKKNDKIRIQKS | 0.741 ± 0.043
103 | CLGCAFPPHSLY | 0.646 ± 0.046
104 | VHLAPPLPPTAT | 0.708 ± 0.021

Row | Sequence | protein stability index
105 | KPKKKRTKQRKR | 0.705 ± 0.08
106 | FFVGGVTDLFVS | 0.724 ± 0.0092
107 | WISAPTDRNITN | 0.713 ± 0.0095
108 | PLPSLPPSLAPW | 0.692 ± 0.078
109 | GRLRGGGPVAAR | 0.692 ± 0.053
110 | PPPPHPPPPLFP | 0.714 ± 0.083
111 | RVHEMSLGPIRL | 0.715 ± 0.036
112 | GGGGGRGQGWYR | 0.651 ± 0.032
113 | FFWTTPRFPFPS | 0.725 ± 0.021
114 | LPPPSAPFPLPP | 0.743 ± 0.026
115 | LDAFYVNVGLFG | 0.732 ± 0.045
116 | WRPVSVVSPLSD | 0.677 ± 0.081
117 | ACGSRGGQTERP | 0.7143 ± 0.0066
118 | FGCISAGLGWMY | 0.721 ± 0.048
119 | PHYLPHAPHGAL | 0.704 ± 0.037
120 | RPPHSNPPRLVI | 0.711 ± 0.045
121 | PPSDRPTVPPPP | 0.709 ± 0.017
122 | GHEKAGPSIGFL | 0.644 ± 0.027
123 | PLFRHAPPSTLH | 0.739 ± 0.014
124 | FFPLSSLIAFLP | 0.6815 ± 0.0025
125 | FFPPLPATSVPA | 0.561 ± 0.1
126 | SSPPAPHLAPPP | 0.703 ± 0.053
127 | DSPLAGALTEVD | 0.715 ± 0.04
128 | RAIGSRIIIWGL | 0.564 ± 0.011
129 | EIKEEKEHRNQE | 0.696 ± 0.052
130 | HISACKFPARTA | 0.692 ± 0.057

Row | Sequence | protein stability index
131 | RTPRGCSLAYRA | 0.72 ± 0.11
132 | GVGLDSMCVEGF | 0.723 ± 0.1
133 | YSSFRSVNWVFP | 0.6838 ± 0.0033
134 | DLSAGPPFLLIR | 0.6717 ± 0.0038
135 | RLGLVVRPCSPP | 0.6864 ± 0.0015
136 | YGLVSFVCFNGG | 0.679 ± 0.042
137 | SPVPVTFSLLTR | 0.698 ± 0.0082
138 | WCGGGGRGGVAG | 0.72 ± 0.047
139 | VMPSICTKYGVN | 0.717 ± 0.13
140 | HKKRPKIRSNEY | 0.622 ± 0.026
141 | PFLGHCPPTPPP | 0.732 ± 0.044
142 | LPPPSPTPPPPP | 0.683 ± 0.019
143 | PLPPRLPPPPPS | 0.72 ± 0.048
144 | LKTGTAAGVKDH | 0.684 ± 0.049
145 | QKSGELVKNVRI | 0.673 ± 0.035
146 | AILSTSHSPWNS | 0.737 ± 0.053
147 | HKLYATANHSPM | 0.672 ± 0.1
148 | HYPGSGAVEQHE | 0.599 ± 0.016
149 | LGPRRPGQSGSR | 0.712 ± 0.011
150 | HPMVFRLAAPRL | 0.779 ± 0.18
151 | SPPPTSQHSGPP | 0.657 ± 0.042
152 | KKMNVKNNKSKI | 0.777 ± 0.17
153 | LLFFSSCLDCFV | 0.635 ± 0.026
154 | ASRHGALIVLST | 0.6701 ± 0.0053
155 | SRASTGPPPPGT | 0.692 ± 0.026
156 | GDTQESSHIRIY | 0.669 ± 0.051

Row | Sequence | protein stability index
157 | FSPPTLSLPGPI | 0.721 ± 0.0083
158 | ALFLFGSDRFFV | 0.747 ± 0.026
159 | HVTFPLRRTFRR | 0.697 ± 0.013
160 | SSTALAFAPYLL | 0.6894 ± 0.005
161 | HPPSSLLSPPSP | 0.702 ± 0.042
162 | EVDRGSNWEGRL | 0.66 ± 0.011
163 | KSYRVGKMAAQR | 0.683 ± 0.012
164 | CNEKVNRNGYKR | 0.69 ± 0.064
165 | RFLPALSRSLPS | 0.782 ± 0.11
166 | PRPHPPPLPCPP | 0.714 ± 0.04
167 | GLSLFPVTFFLR | 0.585 ± 0.02
168 | WSGWGYGISALL | 0.681 ± 0.047
169 | PLLPLRSPPPLV | 0.637 ± 0.046
170 | GVNLFEIVRSVT | 0.7169 ± 0.0012
171 | RCSKFRKFFKHR | 0.6565 ± 0.0031
172 | RFPVLRFPASFL | 0.669 ± 0.048
173 | GAGVLTLDNRRV | 0.674 ± 0.019
174 | HPPRVLHGVPSG | 0.629 ± 0.075
175 | GVLARAYPTLWV | 0.68 ± 0.035
176 | EALLWWGAWGVV | 0.769 ± 0.02
177 | FFFLCLPSSFAF | 0.614 ± 0.0098
178 | HAGLLTSSHPGR | 0.705 ± 0.018
179 | EKTNQPFHTLHA | 0.673 ± 0.011
180 | KGGFGCVGLPGG | 0.638 ± 0.031
181 | PFAHSATFLSLG | 0.774 ± 0.052
182 | GGGLRGVGGLGR | 0.602 ± 0.044

Row | Sequence | protein stability index
183 | EGIYLTVGTVDQ | 0.707 ± 0.049
184 | PLPPPRFPPPRL | 0.68 ± 0.12
185 | SPPPTPPGLLLL | 0.694 ± 0.012
186 | ERDDRSFEWPRQ | 0.69 ± 0.025
187 | PAPPALPFHCPR | 0.654 ± 0.075
188 | RGEVGKVRGPGT | 0.71 ± 0.052
189 | FPHPSPPPFPPP | 0.698 ± 0.026
190 | KRSARRAGRATP | 0.761 ± 0.14
191 | CITRIGSYGEET | 0.679 ± 0.057
192 | GTRVGRARGGRK | 0.835 ± 0.047
193 | SVCLRASSCFRS | 0.648 ± 0.051
194 | IKTLLDYESMRS | 0.768 ± 0.034
195 | REKKDGKLSTTR | 0.761 ± 0.045
196 | LLAGEDGGVGEE | 0.653 ± 0.057
197 | RFPSSCAPLSPY | 0.621 ± 0.029
198 | YRAHAYPYVPRS | 0.682 ± 0.027
199 | RCVFGFGGVVVV | 0.622 ± 0.073
200 | ALVRVVRGIGFC | 0.697 ± 0.062
201 | PVSRSVHIEDKR | 0.727 ± 0.052
202 | PSGICVLSPRYG | 0.7 ± 0.016
